In publication PMC10697951 (2023):

Molecular target: H2A.Z(D97N/S98K)-containing nucleosome core particle with wild-type H4 (H4K20) (UniProt P06899 1-126; P68431 1-136; P62805 1-103)
Test: MST

Kd: 219 nM
B1: SUV420H1(1–390), wild type, with N-terminal 6× His-TEV tag (domain or fragment)
chain: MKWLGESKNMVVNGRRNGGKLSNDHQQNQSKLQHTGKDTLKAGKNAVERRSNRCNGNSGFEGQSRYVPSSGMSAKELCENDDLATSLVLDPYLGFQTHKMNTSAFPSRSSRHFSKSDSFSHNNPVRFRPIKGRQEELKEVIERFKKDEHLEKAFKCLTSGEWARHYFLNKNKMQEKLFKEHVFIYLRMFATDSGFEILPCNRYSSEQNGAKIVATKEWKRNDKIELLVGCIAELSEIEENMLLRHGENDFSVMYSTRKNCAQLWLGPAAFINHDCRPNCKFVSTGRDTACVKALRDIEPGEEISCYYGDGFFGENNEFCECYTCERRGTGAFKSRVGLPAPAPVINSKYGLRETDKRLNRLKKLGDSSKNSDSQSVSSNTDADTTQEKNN
modifications: RED-tris-NTA dye on the His tag
